Measured values: US7655227 (Chugai, dated 2010)

B1: chimeric #23-57-137-1 antibody with L-chain κ chain C-region (antibody, IgG1, V domains shown)
VH: EVQLVESGGDLVKPGGSLKLSCAASGFTFSSYGMSWIRQTPDKRLEWVATISSGGSYTYYPDSVKGRFTISRDNAKNTLYLQMSSLKSEDTAMFYCARQTTMTYFAYWGQGTLVTVSA
VL: QLVLTQSSSASFSLGASAKLTCTLSSQHSTYTIEWYQQQPLKPPKYVMDLKQDGSHSTGDGIPDRFSGSSSGADRYLSISNIQPEDEAMYICGVGDTIKEQFVYVFGGGTKVTVLG
notes: Mouse V-regions joined to human H-chain C-region Cγ1 (IgG1) and human κ chain C-region cloned from HEF-PM1k-gk; Expressed in COS-7 cells; also called chimeric antibody (MBC1HcDNA/pCOS1 and MBC1L(κ)/neo)
B2: chimeric #23-57-137-1 antibody with L-chain λ chain C-region (antibody, IgG1, V domains shown)
VH: EVQLVESGGDLVKPGGSLKLSCAASGFTFSSYGMSWIRQTPDKRLEWVATISSGGSYTYYPDSVKGRFTISRDNAKNTLYLQMSSLKSEDTAMFYCARQTTMTYFAYWGQGTLVTVSA
VL: QLVLTQSSSASFSLGASAKLTCTLSSQHSTYTIEWYQQQPLKPPKYVMDLKQDGSHSTGDGIPDRFSGSSSGADRYLSISNIQPEDEAMYICGVGDTIKEQFVYVFGGGTKVTVLG
notes: Mouse V-regions joined to human H-chain C-region Cγ1 (IgG1) and human λ chain C-region (isotype Mcg+Ke+Oz-, EMBL X57819); Expressed in COS-7 cells; also called chimeric antibody (MBC1HcDNA/pCOS1 and MBC1L(λ)/neo)
B3: antibody having both a humanized H-chain version “a” and a chimeric L-chain (antibody, V domains shown)
VH: QVQLVESGGGVVQPGRSLRLSCAASGFTFSSYGMSWVRQAPGKGLEWVATISSGGSYTYYPDSVKGRFTISRDNSKNTLYLQMNSLRAEDTAVYYCARQTTMTYFAYWGQGTLVTVSS
VL: QLVLTQSSSASFSLGASAKLTCTLSSQHSTYTIEWYQQQPLKPPKYVMDLKQDGSHSTGDGIPDRFSGSSSGADRYLSISNIQPEDEAMYICGVGDTIKEQFVYVFGGGTKVTVLG
notes: Human Cγ1 H-chain C-region
B4: humanized #23-57-137-1 antibody having H-chain version “a” and L-chain version “m” (antibody, IgG1, V domains shown)
VH: QVQLVESGGGVVQPGRSLRLSCAASGFTFSSYGMSWVRQAPGKGLEWVATISSGGSYTYYPDSVKGRFTISRDNSKNTLYLQMNSLRAEDTAVYYCARQTTMTYFAYWGQGTLVTVSS
VL: QLVLTQSPSASASLGASVKLTCTLSSQHSTYTIEWYQQQPEKGPRYLMDLKQDGSHSTGDGIPDRFSGSSSGAERYLTISSLQSEDEADYYCGVGDTIKEQFVYVFGGGTKLTVLG
notes: Human Cγ1 (IgG1) and human λ C-regions; expressed in COS-7 cells; also called hMBC1Lmλ
B5: hybrid antibody with humanized H-chain version a and L-chain hmmMBC1L(λ) (human FR1/mouse FR2,3,4) (antibody, V domains shown)
VH: QVQLVESGGGVVQPGRSLRLSCAASGFTFSSYGMSWVRQAPGKGLEWVATISSGGSYTYYPDSVKGRFTISRDNSKNTLYLQMNSLRAEDTAVYYCARQTTMTYFAYWGQGTLVTVSS
VL: QLVLTQSPSASASLGASVKLTCTLSSQHSTYTIEWYQQQPLKPPKYVMDLKQDGSHSTGDGIPDRFSGSSSGADRYLSISNIQPEDEAMYICGVGDTIKEQFVYVFGGGTKVTVL
notes: Human Cγ1 and human λ C-regions; expressed in COS-7 cells
B6: humanized #23-57-137-1 antibody having H-chain version “a” and L-chain version “j” (antibody, IgG1, V domains shown)
VH: QVQLVESGGGVVQPGRSLRLSCAASGFTFSSYGMSWVRQAPGKGLEWVATISSGGSYTYYPDSVKGRFTISRDNSKNTLYLQMNSLRAEDTAVYYCARQTTMTYFAYWGQGTLVTVSS
VL: QLVLTQSPSASASLGASVKLTCTLSSQHSTYTIEWYQQQPEKGPKYLMDLKQDGSHSTGDGIPDRFSGSSSGAERYLTISSLQSEDEADYYCGVGDTIKEQFVYVFGGGTKLTVLG
notes: Human Cγ1 (IgG1) and human λ C-regions; expressed in COS-7 cells; also called hMBC1Ljλ
B7: hybrid antibody with humanized H-chain version a and L-chain m/hMBC1Laλ (mouse FR1,2/human FR3,4) (antibody, V domains shown)
VH: QVQLVESGGGVVQPGRSLRLSCAASGFTFSSYGMSWVRQAPGKGLEWVATISSGGSYTYYPDSVKGRFTISRDNSKNTLYLQMNSLRAEDTAVYYCARQTTMTYFAYWGQGTLVTVSS
VL: QLVLTQSSSASFSLGASAKLTCTLSSQHSTYTIEWYQQQPLKPPKYVMDLKQDGSHSTGDGIPDRFSGSSSGAERYLTISSLQSEDEADYYCGVGDTIKEQFVYVFGGGTKLTVL
notes: as for B5
B8: humanized #23-57-137-1 antibody having H-chain version “a” and L-chain version “t” (antibody, IgG1, V domains shown)
VH: QVQLVESGGGVVQPGRSLRLSCAASGFTFSSYGMSWVRQAPGKGLEWVATISSGGSYTYYPDSVKGRFTISRDNSKNTLYLQMNSLRAEDTAVYYCARQTTMTYFAYWGQGTLVTVSS
VL: QLVLTQSPSASASLGASVKLTCTLSSQHSTYTIEWYQQQPEKGPRYVMDLKQDGSHSTGDGIPDRFSGSSSGAERYLTISSLQSEDEADYICGVGDTIKEQFVYVFGGGTKLTVLG
notes: Human Cγ1 (IgG1) and human λ C-regions; expressed in COS-7 cells; also called hMBC1Ltλ
B9: humanized #23-57-137-1 antibody having H-chain version “a” and L-chain version “o” (antibody, IgG1, V domains shown)
VH: QVQLVESGGGVVQPGRSLRLSCAASGFTFSSYGMSWVRQAPGKGLEWVATISSGGSYTYYPDSVKGRFTISRDNSKNTLYLQMNSLRAEDTAVYYCARQTTMTYFAYWGQGTLVTVSS
VL: QLVLTQSPSASASLGASVKLTCTLSSQHSTYTIEWYQQQPEKGPRYVMDLKQDGSHSTGDGIPDRFSGSSSGAERYLTISSLQSEDEADYYCGVGDTIKEQFVYVFGGGTKLTVLG
notes: Human Cγ1 (IgG1) and human λ C-regions; expressed in COS-7 cells; also called hMBC1Loλ
B10: humanized #23-57-137-1 antibody having H-chain version “a” and L-chain version “q” (antibody, IgG1, V domains shown)
VH: QVQLVESGGGVVQPGRSLRLSCAASGFTFSSYGMSWVRQAPGKGLEWVATISSGGSYTYYPDSVKGRFTISRDNSKNTLYLQMNSLRAEDTAVYYCARQTTMTYFAYWGQGTLVTVSS
VL: QLVLTQSPSASASLGASVKLTCTLSSQHSTYTIEWYQQQPEKGPKYLMDLKQDGSHSTGDGIPDRFSGSSSGAERYLTISSLQSEDEADYICGVGDTIKEQFVYVFGGGTKLTVLG
notes: Human Cγ1 (IgG1) and human λ C-regions; expressed in COS-7 cells and in CHO cells; also called hMBC1Lqλ
B11: humanized #23-57-137-1 antibody having H-chain version “a” and L-chain version “l” (antibody, IgG1, V domains shown)
VH: QVQLVESGGGVVQPGRSLRLSCAASGFTFSSYGMSWVRQAPGKGLEWVATISSGGSYTYYPDSVKGRFTISRDNSKNTLYLQMNSLRAEDTAVYYCARQTTMTYFAYWGQGTLVTVSS
VL: QLVLTQSPSASASLGASVKLTCTLSSQHSTYTIEWYQQQPEKGPKYVMDLKQDGSHSTGDGIPDRFSGSSSGAERYLTISSLQSEDEADYYCGVGDTIKEQFVYVFGGGTKLTVLG
notes: Human Cγ1 (IgG1) and human λ C-regions; expressed in COS-7 cells; also called hMBC1Llλ
B12: mouse monoclonal antibody #23-57-137-1 against human PTHrP (1-34) (antibody, V domains shown)
VH: EVQLVESGGDLVKPGGSLKLSCAASGFTFSSYGMSWIRQTPDKRLEWVATISSGGSYTYYPDSVKGRFTISRDNAKNTLYLQMSSLKSEDTAMFYCARQTTMTYFAYWGQGTLVTVSA
VL: QLVLTQSSSASFSLGASAKLTCTLSSQHSTYTIEWYQQQPLKPPKYVMDLKQDGSHSTGDGIPDRFSGSSSGADRYLSISNIQPEDEAMYICGVGDTIKEQFVYVFGGGTKVTVLG
notes: Mouse antibody in hybridoma culture supernatant (FERM BP-5631); Lambda L-chain; also called MBC1

target: T1, human PTHrP (1-34) (human); assay: ELISA, plate coated with human PTHrP (1-34); COS-7 supernatant or purified antibody
T1 construct: Coated on the ELISA plate at 1 ug/ml; Added at 1 ng/ml final in the cAMP neutralisation assay, where the species is not restated; also called parathyroid hormone-related peptide (1-34)
Procedure: An ELISA plate for the determination of antigen-binding ability was prepared as follows. Each well of a 96-well ELISA plate was coated with 100 µl of a coating buffer supplemented with 1 µg/ml of human PTHrP (1-34) (Peptide Research Institute), and then blocked with 200 µl of a dilution buffer. Each well was added with each of the serial dilutions of the COS-7 cell culture supernatant in which each of the chimeric antibodies had been expressed, or added with each of the serial dilutions of each of the chimeric antibodies per se in a purified form. After the plate was incubated at room temperature and washed with PBS-Tween 20, each well of the plate was added with 100 µl of a solution of alkaline phosphatase-conjugated goat anti-human IgG antibodies (TAGO). After the plate was incubated at room temperature and washed with PBS-Tween 20, each well of the plate was added with 1 mg/ml of a substrate solution ("Sigma 104"; p-nitrophenylphosphoric acid, SIGMA). The solution was measured on its absorbance at 405 nm using Microplate Reader (Bio Rad).

Binder	binding result
B1	binds
B2	binds

target: T1, human PTHrP (1-34); assay: ELISA, plate coated with human PTHrP (1-34)
Procedure: An ELISA plate for determining antigen-binding ability was prepared as follows. Each well of a 96-well ELISA plate was coated with 100 μl of a coating buffer containing 1 μg/ml of human PTHrP (1-34) and then blocked with 200 μl of a dilution buffer. Subsequently, each well was added with each of the serial dilutions of the COS-7 cell culture supernatant in which each of the hybrid antibodies and humanized antibodies was expressed, or added with each of the serial dilutions of each of the hybrid antibodies and humanized antibodies in a purified form. The plate was incubated at room temperature and washed with PBS-Tween 20. Subsequently, each well was added with 100 μl of alkaline phosphatase-conjugated goat anti-human IgG antibody (TAGO). The plate was incubated at room temperature and washed with PBS-Tween 20. Subsequently, each well was added with 1 mg/ml of a substrate solution ("Sigma 104"; p-nitrophenylphosphoric acid, SIGMA). The solution was measured on its absorbance at 405 nm using Microplate Reader (Bio Rad).

Binder	binding result
B3	binds
B4	binds
B5	binds
B6	binds
B7	binds
B8	binds
B9	binds
B10	binds
B11	binds

target: T1, human PTHrP (1-34); assay: solid phase RIA of hybridoma culture supernatant
Procedure: The screening of hybridomas was performed by determining the presence of PTHrP-recognition antibodies in the culture supernatant of the wells in which cell growth had been observed in HAT medium, by solid phase RIA method. The hybridomas were collected from the wells in which the binding ability to the PTHrP-recognition antibodies had been confirmed. The hybridomas thus obtained was suspended into RPMI-1640 medium containing 15% FCS supplemented with OPI-supplement (Sigma), followed by unification of the hybridomas by limiting dilution method.

Binder	binding result
B12	binds
